Results: the supplement of paper PMC10126150
± gives the standard deviation of the averaged measurements.

System: ATP
Assay: switch fluorescence ratio, 500 uM ATP over buffer (Cy3 cluster intensity, sum of 5 cycles each) (fold (ratio)); higher = stronger signal-on switching upon ATP binding; sequences stand for … in TCGTCGGCAGCGTCAGATGTGTATAAGAGACAGTTTTTTTTTTTTTTTTTTTTTTTTT…TC
Settings: aptamer strand: ATP DNA aptamer (quencher-CACCTGGGGGAGTATTGCGGAGGAAGG + anchor), 100 nM annealed; ATP concentration: 500 uM
Outline: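 Values give the fluorescence ratio for each switch-domain sequence, averaged from per-cluster ratios of summed target-cycle to summed buffer-cycle Cy3 intensity. The Cy3-labelled switching-strand clusters sat on a modified Illumina MiSeq flow-cell, were annealed to 100 nM quencher-labelled ATP aptamer, and were imaged in selection buffer, then after 15 min with 500 uM ATP at 22 °C. Five cycles ran with NaOH stripping and re-annealing between them, and clusters outside 100-1000 RFU were excluded.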
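Note: ATP exposure 15 min at 22 °C before imaging.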

Going from TAACCGATAT to TAACCTCGCG, the switch fluorescence ratio rises from 0.99434 ± 0.00034 to 1.04 ± 0.02.

TAACGAAAAA and TAACGGACGT are within error of each other in switch fluorescence ratio: 1.03 ± 0.062 for the first, 1.01 ± 0.054 for the second.

Compared with TAACGGACTA, TAACGGCATC is lower in switch fluorescence ratio: 1.29 ± 0.023 for the first, 1.08 ± 0.036 for the second.

TAACGGCGCG and TAACGGGCTG are within error of each other in switch fluorescence ratio: 1.028 ± 0.0024 for the first, 1.07 ± 0.054 for the second.

First: TAACGGGGTT
Second: TAACGGTATA
The switch fluorescence ratio of the first is lower: 0.9826 ± 0.00097 for the first, 1.11 ± 0.058 for the second.

TAACGTGGGA and TAACGTGGTG are within error of each other in switch fluorescence ratio: 0.996 ± 0.058 for the first, 1.05 ± 0.019 for the second.

TAACTATTT and TAACTCTGAG are within error of each other in switch fluorescence ratio: 1 ± 0.046 for the first, 0.979 ± 0.015 for the second.

TAACTGCAGA and TAACTTCGTG are the same in switch fluorescence ratio: 1.01 ± 0.038 for the first, 1.01 ± 0.031 for the second.

TAAGAACATT and TAAGAAGATT are within error of each other in switch fluorescence ratio: 1.03 ± 0.1 for the first, 0.986 ± 0.024 for the second.

First: TAAGAAGTCC
Second: TAAGAATTCC
The switch fluorescence ratio of the first is lower: 0.977 ± 0.045 for the first, 1.08 ± 0.047 for the second.

TAAGACGGGG and TAAGAGCGTA are the same in switch fluorescence ratio: 1.01 ± 0.034 for the first, 1.0055 ± 0.00049 for the second.

TAAGAGGAGA and TAAGAGGGAG are within error of each other in switch fluorescence ratio: 0.987 ± 0.017 for the first, 0.966 ± 0.036 for the second.

First: TAAGAGGGTG
Second: TAAGAGTATC
The switch fluorescence ratio of the first is higher: 1.11 ± 0.016 for the first, 1.01 ± 0.019 for the second.

TAAGATCGGC and TAAGATCTGA are within error of each other in switch fluorescence ratio: 0.974 ± 0.017 for the first, 1.02 ± 0.051 for the second.

TAAGATGGTG and TAAGATGTAT are within error of each other in switch fluorescence ratio: 0.981 ± 0.011 for the first, 0.968 ± 0.031 for the second.

TAAGCCTTG and TAAGCTGGCG are within error of each other in switch fluorescence ratio: 0.996 ± 0.006 for the first, 1.06 ± 0.14 for the second.

TAAGCTGTTA and TAAGCTTAGT are within error of each other in switch fluorescence ratio: 0.981 ± 0.038 for the first, 1.001 ± 0.0065 for the second.

TAAGGACGAG and TAAGGAGGAT are within error of each other in switch fluorescence ratio: 1.02 ± 0.013 for the first, 1 ± 0.017 for the second.

TAAGGAGTGG and TAAGGATGGT are within error of each other in switch fluorescence ratio: 1.03 ± 0.073 for the first, 0.997 ± 0.01 for the second.

TAAGGCACGC and TAAGGCTACA are the same in switch fluorescence ratio: 1.01 ± 0.027 for the first, 1.01 ± 0.016 for the second.

Compared with TAAGGCTGAC, TAAGGCTGTG is lower in switch fluorescence ratio: 1.15 ± 0.023 for the first, 1 ± 0.017 for the second.

TAAGGGAGGG and TAAGGGCGGC are within error of each other in switch fluorescence ratio: 1.05 ± 0.029 for the first, 0.995 ± 0.043 for the second.

TAAGGGCTGC and TAAGGGGAGT are within error of each other in switch fluorescence ratio: 1.036 ± 0.0084 for the first, 1.01 ± 0.038 for the second.

TAAGGGGCCA and TAAGGGGCGT are within error of each other in switch fluorescence ratio: 1.024 ± 0.0088 for the first, 1.03 ± 0.035 for the second.

TAAGGGGGCG and TAAGGGGGGA are within error of each other in switch fluorescence ratio: 1 ± 0.023 for the first, 1.03 ± 0.08 for the second.

TAAGGGGGGG and TAAGGGGTAC are the same in switch fluorescence ratio: 1 ± 0.029 for the first, 1 ± 0.013 for the second.

TAAGGTACGA and TAAGGTACTG are within error of each other in switch fluorescence ratio: 1.052 ± 0.0032 for the first, 0.984 ± 0.086 for the second.

TAAGGTCGGC and TAAGGTTCTC are within error of each other in switch fluorescence ratio: 0.986 ± 0.028 for the first, 0.96 ± 0.015 for the second.

TAAGGTTGGT and TAAGTAAGGG are within error of each other in switch fluorescence ratio: 0.987 ± 0.028 for the first, 1 ± 0.025 for the second.

First: TAAGTAATTC
Second: TAAGTAGAG
The switch fluorescence ratio of the first is higher: 1.08 ± 0.064 for the first, 0.9824 ± 0.0097 for the second.

TAAGTAGGGG and TAAGTAGGGT are within error of each other in switch fluorescence ratio: 0.981 ± 0.023 for the first, 1.01 ± 0.023 for the second.

TAAGTATGCC and TAAGTATGGT are within error of each other in switch fluorescence ratio: 0.963 ± 0.06 for the first, 1.03 ± 0.046 for the second.

TAAGTCAGCT and TAAGTCCCGG are within error of each other in switch fluorescence ratio: 1 ± 0.032 for the first, 0.984 ± 0.05 for the second.

TAAGTCGGGA and TAAGTGAAAG are within error of each other in switch fluorescence ratio: 0.952 ± 0.025 for the first, 0.986 ± 0.022 for the second.

TAAGTGACAA and TAAGTGACAG are within error of each other in switch fluorescence ratio: 1.05 ± 0.019 for the first, 1.01 ± 0.063 for the second.

TAAGTGCAT and TAAGTGGTA are within error of each other in switch fluorescence ratio: 1.0026 ± 4.4e-05 for the first, 0.993 ± 0.042 for the second.

TAAGTGGTTT and TAAGTGTAAA are within error of each other in switch fluorescence ratio: 1 ± 0.019 for the first, 0.986 ± 0.013 for the second.

TAAGTTAGTG and TAAGTTGACT are within error of each other in switch fluorescence ratio: 1 ± 0.016 for the first, 1.06 ± 0.078 for the second.

TAAGTTGGGA and TAAGTTTTCC are within error of each other in switch fluorescence ratio: 0.98 ± 0.031 for the first, 1.03 ± 0.032 for the second.

TAATAAGCGG and TAATAAGGGG are within error of each other in switch fluorescence ratio: 0.976 ± 0.035 for the first, 1.02 ± 0.028 for the second.

TAATAAGTA and TAATAATGAG are within error of each other in switch fluorescence ratio: 0.97 ± 0.012 for the first, 0.981 ± 0.011 for the second.

TAATAATTGG and TAATACGGCG are within error of each other in switch fluorescence ratio: 1.04 ± 0.057 for the first, 1.009 ± 0.01 for the second.

TAATAGATCC and TAATAGTGTT are within error of each other in switch fluorescence ratio: 1.01 ± 0.067 for the first, 1.024 ± 0.0092 for the second.

TAATAGTTCT and TAATATAGTT are the same in switch fluorescence ratio: 1.01 ± 0.026 for the first, 1.01 ± 0.027 for the second.

TAATATGGGC and TAATATTAAC are the same in switch fluorescence ratio: 1.02 ± 0.034 for the first, 1.02 ± 0.03 for the second.

TAATATTTTA and TAATATTTTT are within error of each other in switch fluorescence ratio: 0.987 ± 0.014 for the first, 1 ± 0.017 for the second.

TAATCAATGT and TAATCACGTC are within error of each other in switch fluorescence ratio: 0.994 ± 0.011 for the first, 1.04 ± 0.048 for the second.

Going from TAATCCGCGG to TAATCGACTT, the switch fluorescence ratio falls from 1.14 ± 0.041 to 1.02 ± 0.014.

TAATCGGGTT and TAATCGTGGA are within error of each other in switch fluorescence ratio: 0.996 ± 0.017 for the first, 1.03 ± 0.022 for the second.

TAATCGTGTG and TAATCGTTTG are within error of each other in switch fluorescence ratio: 0.985 ± 0.067 for the first, 0.962 ± 0.01 for the second.

First: TAATGACCAA
Second: TAATGACTTG
The switch fluorescence ratio of the first is higher: 1.019 ± 0.0071 for the first, 0.953 ± 0.031 for the second.

TAATGAGCTA and TAATGAGTCA are within error of each other in switch fluorescence ratio: 0.987 ± 0.042 for the first, 1 ± 0.081 for the second.

First: TAATGAGTTA
Second: TAATGCATTT
The switch fluorescence ratio of the first is lower: 0.9658 ± 0.0012 for the first, 1.01 ± 0.017 for the second.

TAATGCGTTT and TAATGCTTAT are within error of each other in switch fluorescence ratio: 0.98 ± 0.0039 for the first, 1.06 ± 0.12 for the second.

TAATGCTTTT and TAATGGAAAA are within error of each other in switch fluorescence ratio: 0.978 ± 0.03 for the first, 1.15 ± 0.28 for the second.

First: TAATGGAGTT
Second: TAATGGGGCC
The switch fluorescence ratio of the first is lower: 1 ± 0.029 for the first, 1.057 ± 0.005 for the second.

TAATGGGGGT and TAATGGGTTT are within error of each other in switch fluorescence ratio: 0.994 ± 0.025 for the first, 0.999 ± 0.062 for the second.

TAATGGTCGG and TAATGGTT are within error of each other in switch fluorescence ratio: 0.985 ± 0.053 for the first, 0.979 ± 0.011 for the second.

TAATGTATGT and TAATGTATTA are within error of each other in switch fluorescence ratio: 0.977 ± 0.018 for the first, 1.01 ± 0.027 for the second.

TAATGTGTAA and TAATGTTATT are within error of each other in switch fluorescence ratio: 0.9944 ± 0.0052 for the first, 0.987 ± 0.017 for the second.

TAATTAATGG and TAATTACCTC are within error of each other in switch fluorescence ratio: 1 ± 0.031 for the first, 1.04 ± 0.013 for the second.

TAATTAGTGG and TAATTAGTGT are within error of each other in switch fluorescence ratio: 0.9832 ± 0.0051 for the first, 0.979 ± 0.013 for the second.

TAATTATGTG and TAATTCAGGG are within error of each other in switch fluorescence ratio: 0.986 ± 0.024 for the first, 1.03 ± 0.032 for the second.

TAATTCATCG and TAATTCTTGG are the same in switch fluorescence ratio: 0.97196 ± 0.00069 for the first, 0.972 ± 0.046 for the second.

TAATTGATGT and TAATTGGACG are within error of each other in switch fluorescence ratio: 1.01 ± 0.06 for the first, 1.12 ± 0.062 for the second.

TAATTGGATG and TAATTGGCAA are within error of each other in switch fluorescence ratio: 0.992 ± 0.027 for the first, 1.004 ± 0.0017 for the second.

TAATTGGGAA and TAATTGGGGT are within error of each other in switch fluorescence ratio: 0.997 ± 0.035 for the first, 0.994 ± 0.018 for the second.

TAATTGGTGG and TAATTGTGCT are within error of each other in switch fluorescence ratio: 1.01 ± 0.029 for the first, 0.979 ± 0.026 for the second.

Compared with TAATTGTTGT, TAATTTATAC is higher in switch fluorescence ratio: 1.003 ± 0.005 for the first, 1.053 ± 0.0054 for the second.

TAATTTCTAC and TAATTTCTTA are within error of each other in switch fluorescence ratio: 1.005 ± 0.0054 for the first, 0.996 ± 0.014 for the second.

TAATTTCTTG and TAATTTGCGT are within error of each other in switch fluorescence ratio: 1.013 ± 0.0018 for the first, 1 ± 0.019 for the second.

TAATTTGTGC and TAATTTGTGG are within error of each other in switch fluorescence ratio: 1.01 ± 0.044 for the first, 0.995 ± 0.023 for the second.

TAATTTTAGG and TAATTTTCCG are within error of each other in switch fluorescence ratio: 0.996 ± 0.012 for the first, 1.02 ± 0.043 for the second.

TAATTTTTAA and TACAAAGAGT are within error of each other in switch fluorescence ratio: 0.99 ± 0.029 for the first, 1.04 ± 0.025 for the second.

TACAAGAAGG and TACAATTTTG are the same in switch fluorescence ratio: 1.015 ± 0.0066 for the first, 1.013 ± 0.0017 for the second.

Compared with TACACCGTCA, TACAGAGTTT is lower in switch fluorescence ratio: 1.08 ± 0.023 for the first, 0.977 ± 0.015 for the second.

In the case of TACAGCTGCG, the switch fluorescence ratio is reported as 1.007 ± 0.0015.
